The values below come from the Human Domainome abundance scans (Beltran et al. 2025).

± gives the uncertainty stated by the source.

B1: Transitional endoplasmic reticulum ATPase, residues 26 to 106; numbered along this chain, P55072 (parent)
chain: LIVDEAINEDNSVVSLSQPKMDELQLFRGDTVLLKGKKRREAVCIVLSDDTCSDEKIRMNRVVRNNLRVRLGDVISIQPCP

This series covers variants of B1. The experiment in a line: abundance fitness (aPCA) (normalised: wild type 0, dead -1); higher = more abundant; growth selection in yeast, the domain comes from the species named. To be noted: Homo sapiens.
In the case of V62A, the abundance fitness is -0.04 ± 0.06.

In the case of V62H, the abundance fitness was determined as 0.038 ± 0.14.

Regarding V62C, the abundance fitness turned out to be 0.029 ± 0.095.

As to S15T, the abundance fitness amounted to 0.004 ± 0.067.

Consider S15E, for which the abundance fitness is 0.008 ± 0.076.

On to S15Q, for which the abundance fitness was 0.082 ± 0.053.

For S15G, the abundance fitness was determined as 0.034 ± 0.032.

Take T51G: the abundance fitness was -0.024 ± 0.045.

On to T51Q, for which the abundance fitness is -0.183 ± 0.12.

As for T51E, the abundance fitness turned out to be 0.05 ± 0.07.

For T51C, the abundance fitness was -0.064 ± 0.1.

For L34W, the abundance fitness was -0.777 ± 0.23.

Consider L34E, for which the abundance fitness was -1.01 ± 0.25.

On to I77A, for which the abundance fitness is -0.309 ± 0.075.

In the case of G36Y, the abundance fitness was -0.186 ± 0.12.

On to G36I, for which the abundance fitness is -0.545 ± 0.2.

Regarding G36L, the abundance fitness is -0.757 ± 0.099.

As to D73N, the abundance fitness is -0.102 ± 0.22.

For the variant D73V, the abundance fitness is -0.949 ± 0.093.

For D73F, the abundance fitness was -0.861 ± 0.18.

As for D73C, the abundance fitness was -0.343 ± 0.15.

In the case of D73I, the abundance fitness was -0.655 ± 0.24.

V14F: the abundance fitness was -1.06 ± 0.25.

Take V14G: the abundance fitness is -0.758 ± 0.054.

As to V14E, the abundance fitness is -0.945 ± 0.31.

Regarding I57R, the abundance fitness was -0.931 ± 0.14.

Take R28E: the abundance fitness stood at 0.094 ± 0.056.

For the variant R28M, the abundance fitness was 0.011 ± 0.092.

Take R28L: the abundance fitness turned out to be 0.012 ± 0.059.

Consider K38C, for which the abundance fitness was -0.225 ± 0.18.

Take K38F: the abundance fitness was -0.079 ± 0.2.

With D49F, the abundance fitness was -0.936 ± 0.29.

D49Y: the abundance fitness is -0.745 ± 0.23.

For D49T, the abundance fitness is -0.01 ± 0.097.

Regarding D49V, the abundance fitness was -0.455 ± 0.068.

Take D49S: the abundance fitness was 0.064 ± 0.057.

In the case of R70G, the abundance fitness was 0.049 ± 0.056.

Turning to R70E, the abundance fitness came out at 0.106 ± 0.092.

Turning to R70S, the abundance fitness worked out at 0.036 ± 0.062.

For the variant P81I, the abundance fitness was -0.174 ± 0.15.

In the case of P81F, the abundance fitness was -0.195 ± 0.16.

Consider P81V, for which the abundance fitness is -0.153 ± 0.14.

Turning to R68W, the abundance fitness was -0.169 ± 0.097.

As for R68L, the abundance fitness was -0.033 ± 0.057.

As for R68Q, the abundance fitness was -0.119 ± 0.1.

Take M59P: the abundance fitness was -1.12 ± 0.32.

On to I2K, for which the abundance fitness is -0.006 ± 0.11.

Regarding R61T, the abundance fitness is -0.009 ± 0.092.

On to R61I, for which the abundance fitness was -0.026 ± 0.15.

T31N: the abundance fitness was -0.023 ± 0.11.

Regarding T31I, the abundance fitness was -0.235 ± 0.13.

On to T31W, for which the abundance fitness was -0.134 ± 0.087.

As for T31V, the abundance fitness is -0.104 ± 0.049.

For S48Q, the abundance fitness is -0.106 ± 0.1.

S48V: the abundance fitness came to 0.004 ± 0.055.

On to S48A, for which the abundance fitness stood at 0.065 ± 0.065.

Consider N8E, for which the abundance fitness is 0.013 ± 0.061.

With N8L, the abundance fitness is -0.022 ± 0.049.

In the case of N8Y, the abundance fitness came to 0.006 ± 0.13.

Turning to S76W, the abundance fitness is -0.207 ± 0.082.

With E41Q, the abundance fitness was -0.098 ± 0.43.

As for E41P, the abundance fitness was -0.131 ± 0.1.

In the case of F27I, the abundance fitness was -0.04 ± 0.062.

In the case of I45Y, the abundance fitness is -0.029 ± 0.11.

Regarding I45M, the abundance fitness was -0.137 ± 0.064.

For the variant I45V, the abundance fitness is 0.028 ± 0.032.

With E55H, the abundance fitness is -0.041 ± 0.11.

Take E55S: the abundance fitness came to 0.01 ± 0.056.

For E55T, the abundance fitness is -0.03 ± 0.12.

Regarding D50F, the abundance fitness was -0.214 ± 0.13.

In the case of C80E, the abundance fitness is -0.095 ± 0.17.

For C80I, the abundance fitness came to 0.047 ± 0.079.

Turning to C80Y, the abundance fitness is -0.109 ± 0.059.

As for D22C, the abundance fitness is -0.083 ± 0.051.

As for D22F, the abundance fitness was -0.1 ± 0.063.

For the variant D22V, the abundance fitness was -0.049 ± 0.054.

Take D22E: the abundance fitness is -0.038 ± 0.059.

Turning to D22Y, the abundance fitness was -0.067 ± 0.088.

Regarding A6T, the abundance fitness is 0.046 ± 0.053.

For the variant A6W, the abundance fitness was -0.006 ± 0.064.

For the variant A6D, the abundance fitness is -0.054 ± 0.09.

As for L67A, the abundance fitness was -0.601 ± 0.074.

Consider L67N, for which the abundance fitness is -0.757 ± 0.2.

Consider I75H, for which the abundance fitness was -0.695 ± 0.14.

Take I75F: the abundance fitness was -0.859 ± 0.15.

I75L: the abundance fitness was -0.155 ± 0.054.

In the case of L71N, the abundance fitness came to 0.103 ± 0.14.

As to L71D, the abundance fitness is -0.086 ± 0.15.

As to L71Y, the abundance fitness is -0.391 ± 0.34.

With L26M, the abundance fitness is -0.047 ± 0.092.

With L26A, the abundance fitness was -0.36 ± 0.063.

Consider G29M, for which the abundance fitness is -0.098 ± 0.12.

In the case of K35L, the abundance fitness is -0.058 ± 0.086.

S53W: the abundance fitness is -0.22 ± 0.071.

Consider Q18L, for which the abundance fitness is -0.049 ± 0.052.

For the variant Q18E, the abundance fitness is -0.114 ± 0.1.

For Q18R, the abundance fitness was -0.046 ± 0.062.

On to Q18T, for which the abundance fitness is -0.148 ± 0.096.

Regarding S12T, the abundance fitness was 0.082 ± 0.082.

As for S12N, the abundance fitness was -0.086 ± 0.083.

Regarding S12A, the abundance fitness was 0.035 ± 0.048.

Regarding D4Y, the abundance fitness is -0.32 ± 0.28.

With V46M, the abundance fitness is -0.376 ± 0.12.

For the variant V46P, the abundance fitness was -0.439 ± 0.1.

On to C52G, for which the abundance fitness was -0.197 ± 0.047.

For C52I, the abundance fitness is -0.091 ± 0.2.

V74L: the abundance fitness was -0.117 ± 0.064.

As to V74Q, the abundance fitness came out at 0.037 ± 0.095.

Take A42Q: the abundance fitness was -0.003 ± 0.096.

Turning to A42E, the abundance fitness is -0.117 ± 0.093.

With A42H, the abundance fitness is 0.027 ± 0.039.

For N66L, the abundance fitness was -0.012 ± 0.066.

Regarding N66T, the abundance fitness came out at 0.007 ± 0.11.

For the variant R58P, the abundance fitness is -0.927 ± 0.32.

As to R58F, the abundance fitness was -0.216 ± 0.19.

As to G72C, the abundance fitness was -0.453 ± 0.2.

G72L: the abundance fitness is -0.42 ± 0.072.

With P19Q, the abundance fitness amounted to 0.093 ± 0.1.

Take P19K: the abundance fitness is -0.252 ± 0.18.

Regarding P19W, the abundance fitness was -0.016 ± 0.08.

Regarding P19Y, the abundance fitness stood at 0.072 ± 0.24.

Regarding Q25M, the abundance fitness is -0.106 ± 0.091.

Take Q25L: the abundance fitness was -0.149 ± 0.046.

In the case of Q25P, the abundance fitness is -1 ± 0.18.

Consider R40E, for which the abundance fitness is -0.051 ± 0.13.

Take R40C: the abundance fitness was -0.071 ± 0.12.

In the case of V69A, the abundance fitness was -0.045 ± 0.064.

Take V69Q: the abundance fitness was -0.689 ± 0.085.

Take V69G: the abundance fitness is -0.886 ± 0.097.

As to P79R, the abundance fitness is -0.106 ± 0.062.

For the variant P79Y, the abundance fitness is -0.208 ± 0.12.

Turning to N60E, the abundance fitness is -0.266 ± 0.11.

For V3C, the abundance fitness is -0.173 ± 0.13.

Regarding E23M, the abundance fitness is 0.085 ± 0.3.

In the case of E23I, the abundance fitness was -0.126 ± 0.18.

On to E23F, for which the abundance fitness is -0.263 ± 0.21.

In the case of M21G, the abundance fitness is -0.894 ± 0.081.

On to L33Q, for which the abundance fitness is -0.109 ± 0.087.

Regarding L33M, the abundance fitness turned out to be 0.019 ± 0.083.

As for R64E, the abundance fitness is -0.65 ± 0.16.

Take K37F: the abundance fitness was -0.124 ± 0.14.

On to K37R, for which the abundance fitness was 0.028 ± 0.076.

With K37G, the abundance fitness is -0.05 ± 0.06.

In the case of K37L, the abundance fitness was -0.018 ± 0.082.

For V63F, the abundance fitness was -0.061 ± 0.14.

Regarding V63E, the abundance fitness is -0.223 ± 0.14.

In the case of V63D, the abundance fitness came to 0.029 ± 0.12.

V63P: the abundance fitness is -0.896 ± 0.29.

On to L47E, for which the abundance fitness amounted to 0.055 ± 0.09.

Consider L47I, for which the abundance fitness was -0.042 ± 0.083.

With I7H, the abundance fitness is -0.15 ± 0.13.

Take I7D: the abundance fitness is 0.032 ± 0.12.

As to I7E, the abundance fitness was found to be 0.127 ± 0.075.

As to D30I, the abundance fitness was -0.68 ± 0.29.

For D30W, the abundance fitness is -0.286 ± 0.079.

As to D10E, the abundance fitness was -0.159 ± 0.077.

Turning to D10Y, the abundance fitness was -0.096 ± 0.12.

On to N11H, for which the abundance fitness came out at 0.103 ± 0.089.

As for V43P, the abundance fitness was -0.26 ± 0.085.

Consider V43Y, for which the abundance fitness was determined as 0.072 ± 0.14.

Consider Q78T, for which the abundance fitness is -0.003 ± 0.077.

For the variant Q78V, the abundance fitness was 0.039 ± 0.064.

Consider L1T, for which the abundance fitness is -0.424 ± 0.13.

L1S: the abundance fitness was -0.264 ± 0.075.

As to L1K, the abundance fitness is -0.292 ± 0.31.

In the case of L1I, the abundance fitness was determined as 0.128 ± 0.14.

On to E9F, for which the abundance fitness is -0.057 ± 0.084.
